In patent publication US10428159B2, “Blocking monoclonal antibodies to AGR2 and its receptor C4.4A” (Board of Regents, The University of Texas System, priority 2014, dated 2019):

B1: rAGR2: human recombinant AGR2 protein (ab64013, AbCam) (protein)
chain: RDTTVKPGAKKDTKDSRPKLPQTLSRGWGDQLIWTQTYEEALYKSKTSNKPLMIIHHLDECPHSQALKKVFAENKEIQKLAEQFVLLNLVYETTDKHLSPDGQYVPRIMFVDPSLTVRADITGRYSNRLYAYEPADTALLLDNMKKALKLLKTEL
B2: 162-1A-1: mouse monoclonal blocking antibody against C4.4A, IgG2b/kappa, VH SEQ ID NO: 10, VL SEQ ID NO: 11 (antibody, V domains shown)
VH: MNFGLSLIFLVLILKGVQCEVMLVESGGGLVKPGGSLKLSCAASGFTFSSYTMSWVRQTPEKRLEWVASISSGGGNTYYADSVKGRFTMSRDNAKNNLYLQMSSLRSEDTALYYCARSYYYGISYDTYWGQGTLVTVSA
VL: MKLPVRLLVLMFWIPASNSDVVMTQTPLSLPVSLGDQASISCRSSQNLVHSDGNTYLHWYLQKPGQSPKLLIYKVSNRFSGVPDRFSGSGSGTDFTLKISRVEAEDLGVYFCSQSTHVPYTFGGGTKLEIK

Experiments:
[1] = test system: AsPC-1 cells; assay: Cell proliferation (MTS assay) with rAGR2; format: cell-based; conditions: AsPC-1, rAGR2 0-500 nM, concentration-dependent
Description: (§1) Cell growth, migration, invasion and apoptosis assays. Wild-type and siRNA transfected PDAC cells were grown with rAGR2 (0-500 nM) in the presence and absence of antibodies (polyclonal commercial or newly developed mAbs) (1 μM). The medium was refreshed daily. Cell numbers were estimated after 48 h by MTS assay as described previously (Ramachandran et al., 2007). In order to avoid the differences in basal values for each cell line, the data are presented as the percent of viable cells compared to the appropriate controls. Migration and invasion assays were conducted at 24 h as described previously (Ramachandran et al., 2007). Apoptosis assays were conducted 72 h after adding Gemcitabine (Gem) to Gem-sensitive BxPC-3 cells (1 μM) and Gem-resistant AsPC-1 cells (5 μM) (Arumugam et al., 2009) as described previously (Ramachandran et al., 2008). Because siRNA transfection itself induced basal apoptosis, cells transfected with siRNAs were treated with a lower concentration of Gem (BxPC3: 0.5 μM; AsPC-1: 1 μM).

[2] = test system: AsPC-1 cells; assay: Migration assay with rAGR2; format: cell-based; conditions: AsPC-1, rAGR2 0-500 nM
Description: as §1

[3] = test system: AsPC-1 cells; assay: Invasion assay with rAGR2; format: cell-based; conditions: AsPC-1, rAGR2 0-500 nM
Description: as §1

[4] = test system: BxPC-3 cells; assay: Apoptosis assay (Gem, rAGR2); format: cell-based; conditions: BxPC-3, Gem 1 μM, AGR2 100 nM
Description: (§2) FIGS. 7A-D. Extracellular rAGR2-mediated functions. (A) Pancreatic cancer cells (BxPC-3 and MiaPaCa-2) were used for these studies. Extracellular addition of rAGR2 caused a significant dose-dependent increase in proliferation (BxPC-3-3-fold increase; MiaPaCa-2-4-fold increase; p<0.05). Pancreatic cancer cells were plated (2×10^4 cells) with and without rAGR2 (0-100 nM) on a Boyden's chamber for migration studies (B) and on an invasion chamber for invasion studies (C). After 22 h, cells were fixed with methanol and stained by hematoxylin, and cells in 10 random fields at 100× magnification were photographed and counted. Extracellular addition of rAGR2 caused a significant dose-dependent increase in migration (BxPC-3-7-fold increase; MiaPaCa-2-3-fold increase) and invasion (BxPC-3-10-fold increase; MiaPaCa-2-3-fold increase). (D) For analysis of apoptosis, BxPC-3 cells were treated with and without Gem (1 μM) and AGR2 (100 nM). […] Data shown are mean±SE for 3 experiments (*p<0.05 vs. control).
(§3) Cell growth, migration, invasion and apoptosis assays. Wild-type and siRNA transfected PDAC cells were grown with rAGR2 (0-500 nM) in the presence and absence of antibodies (polyclonal commercial or newly developed mAbs) (1 μM). The medium was refreshed daily. Cell numbers were estimated after 48 h by MTS assay as described previously (Ramachandran et al., 2007). […]

[5] = test system: BxPC-3 cells; assay: Cell proliferation with rAGR2; format: cell-based; conditions: BxPC-3, rAGR2 dose-dependent
Description: as §2, §3

[6] = test system: MiaPaCa-2 cells; assay: Cell proliferation with rAGR2; format: cell-based; conditions: MiaPaCa-2, rAGR2 dose-dependent
Description: as §2, §3

[7] = test system: BxPC-3 cells; assay: Invasion chamber assay with rAGR2; format: cell-based; conditions: BxPC-3, rAGR2 0-100 nM, 22 h
Description: as §2, §3

[8] = test system: MiaPaCa-2 cells; assay: Invasion chamber assay with rAGR2; format: cell-based; conditions: MiaPaCa-2, rAGR2 0-100 nM, 22 h
Description: as §2, §3

[9] = test system: BxPC-3 cells; assay: Migration (Boyden's chamber) with rAGR2; format: cell-based; conditions: BxPC-3, rAGR2 0-100 nM, 22 h
Description: as §2, §3

[10] = test system: MiaPaCa-2 cells; assay: Migration (Boyden's chamber) with rAGR2; format: cell-based; conditions: MiaPaCa-2, rAGR2 0-100 nM, 22 h
Description: as §2, §3

[11] = test system: AsPC-1 cells; assay: Apoptosis assay (Gem, rAGR2, antibodies); format: cell-based
Description: FIGS. 11A-D. Monoclonal antibodies developed bind respectively to AGR2 and C4.4A proteins and blocked their functions. From the endogenous lysate (SU86.86/Panc-1), AGR2 (18 kD) and C4.4A (50 kD) were identified by a panel of mAbs. […] Extra bands identified with the endogenous protein were re-confirmed with the recombinant protein. For apoptosis studies, AsPC-1 cells were treated without or with Gem (0.5 μM) and rAGR2 (100 nM) and with purified (A) AGR2 and (B) C4.4A Abs (1 μM). Commercially available Abs served as control. […] Horizontal line represents median apoptotic value. Data shown are mean±SE for 3 experiments (*p<0.05). (C,D) Binding assays were conducted with purified (C) AGR2 and (D) C4.4A Abs as selected from the apoptosis assay as having high blocking efficiency. ELISA assays were conducted by coating antigenic peptide (0.5 μg) and probed with respective purified Abs. Data shown are mean±SE for 3 experiments (*p <0.05). Based on high specificity and binding, clone 28B for AGR2 and 1A for C4.4A were selected. Purified Abs were also run on 4-20% gradient gel to check for the presence of heavy (50 kD) and light chains (25 kD).
Cell growth, migration, invasion and apoptosis assays. Wild-type and siRNA transfected PDAC cells were grown with rAGR2 (0-500 nM) in the presence and absence of antibodies (polyclonal commercial or newly developed mAbs) (1 μM). The medium was refreshed daily. […]

[12] = test system: Capan-2 cells; assay: Model 3 Capan-2 regression studies, orthotopic tumors; format: in vivo, athymic nude mice; conditions: 15 mg/kg single mAb or 7.5 mg each in combination, twice a week i.p.
Description: Immunohistochemical (IHC) staining. […] Results were blindly evaluated by a pathologist and expression levels were categorized as positive or negative (cytoplasmic staining of >10% or <10% of the tumor cells, respectively) and staining intensity as strong, moderate, or no staining. Apoptotic cells were detected in paraffin sections by fluorescence-labeled TUNEL staining (Promega, Cat #G3250).
(§4) In vivo studies. In vivo experiments were conducted with athymic nude mice (B6.Cg-Foxn1^nu/J—female—age 9 weeks) (NCI, Bethesda, Md.) according to the UT MDACC regulatory standards and IUCAC committee approval. Orthotopic tumors were developed with luciferase-labeled cells (0.25×10^6). IgG (Cat #OB010701; Southern Biotech, Birmingham, Ala.) served as a control Ab.
Tumor growth and metastasis were measured weekly with the IVIS® live animal bioluminescence imaging system after injecting luciferin substrate (Xenogen, Alameda, Calif.). The number of mice surviving was recorded each week and shown as the percent of the original group size.

[13] = test system: Capan-2 cells; assay: Model 2 Capan-2 stromal model, orthotopic tumors; format: in vivo, athymic nude mice
Description: as §4

[14] = test system: PDAC cell; assay: Blocking of basal and AGR2-stimulated PDAC cell migration by antibodies; format: cell-based; conditions: antibodies 1 μM, compared to non-specific antibody
Description: as §1
Blocking monoclonal antibody development. Mouse monoclonal antibodies (mAbs) against AGR2 and C4.4A were developed in the Monoclonal Antibody Core of UT MDACC using unconjugated antigenic peptides. Several hybridoma colonies (2400 for each antibody) were screened for target recognition by ELISA using KLH-conjugated peptides. […]

| Molecule | increased proliferation [1] | increased migration [2] | increased invasion [3] | reduction of Gem induced apoptosis [4] | increase in proliferation [5] | increase in proliferation [6] | increase in invasion [7] | increase in invasion [8] | increase in migration [9] | increase in migration [10] | reduction of the effect of Gem (apoptosis) ([11]; AsPC-1, simultaneous rAGR2 with 5 μM Gem) | Median survival times [12] | Median survival ([13]; 15 mg/kg twice a week i.p.) | mice surviving ([13]; at nine weeks (seven weeks of treatment), when all control Ab mice had died, 15 mg/kg twice a week i.p.) | mice with complete tumor regression ([13]; bioluminescence imaging, confirmed by surgical examination) | reduction of tumor volume ([13]; compared to control Ab, bioluminescence) | mice surviving after week 63 ([13]; treatment stopped after 15 weeks, no evidence of tumor) | basal and AGR2-mediated stimulation in migration [14] | AGR2-mediated survival effects (Gem-induced apoptosis) ([11]; AsPC-1, Gem, rAGR2 100 nM, Abs 1 μM) |
| --- | --- | --- | --- | --- | --- | --- | --- | --- | --- | --- | --- | --- | --- | --- | --- | --- | --- | --- | --- |
| B1 | 3 fold | 10 fold | 3 fold | 50% | 3 fold | 4 fold | 10 fold | 3 fold | 7 fold | 3 fold | > 50% |  |  |  |  |  |  |  |  |
| B2 |  |  |  |  |  |  |  |  |  |  |  | 12 weeks | 10 weeks | 57% | 3/7 | 50% | one | abolished | abolished |
